For the data set, the target named is T1, amyloid β(3-11).
T1 chain: EFRHDSGYE

B1: YSShisoQCI55NC351A C-His (human isoQC expressed in P. pastoris) (protein)
chain: FYTIWSGWHRRTEELPLGRELRVPLNGSLPEARLRRVVGQLDPQRLWSTYLRPLLVVRTPGSPGNLQVRKFLEATLRSLTAGWHVELDPFTASTPLGPVDFGNVVATLDPRAARHLTLACHYDSKLFPPGSTPFVGATDSAVPCALLLELAQALDLELSRAKKQAAPVTLQLLFLDGEEALKEWGPKDSLYGSRHLAQLMESIPHSPGPTRIQAIELFMLLDLLGAPNPTFYSHFPRTVRWFHRLRSIEKRLHRLNLLQSHPQEVMYFQPGEPFGSVEDDHIPFLRRGVPVLHLISTPFPAVWHTPADTEVNLHPPTVHNLARILAVFLAEYLGLHHHHHH
Regarding B1, the “conversion of Aβ(3-11) into pGlu-Aβ(3-11), Maldi-Tof mass spectrometry” value is “human QC and human isoQC (YSShisoQCI55NC351A C-His) catalyze the conversion of Aβ(3-11) into pGlu-Aβ(3-11); the conversion of N-terminal glutamic acid by hisoQC is much slower compared with hQC”.

B2: human QC (glutaminyl cyclase, QPCT) (protein)
chain: VSPSASAWPEEKNYHQPAILNSSALRQIAEGTSISEMWQNDLQPLLIERYPGSPGSYAARQHIMQRIQRLQADWVLEIDTFLSQTPYGYRSFSNIISTLNPTAKRHLVLACHYDSKYFSHWNNRVFVGATDSAVPCAMMLELARALDKKLLSLKTVSDSKPDLSLQLIFFDGEEAFLHWSPQDSLYGSRHLAAKMASTPHPPGARGTSQLHGMDLLVLLDLIGAPNPTFPNFFPNSARWFERLQAIEHELHELGLLKDHSLEGRYFQNYSYGGVIQDDHIPFLRRGVPVLHLIPSPFPEVWHTMDDNEENLDESTIDNLNKILQVFVLEYLHL
In the case of B2, the “conversion of Aβ(3-11) into pGlu-Aβ(3-11), Maldi-Tof mass spectrometry” value is “human QC and human isoQC (YSShisoQCI55NC351A C-His) catalyze the conversion of Aβ(3-11) into pGlu-Aβ(3-11)”.

Values taken from US20080249083.
